Test results as given in US20080020978A1 (Amgen, published 2008).
Square brackets hold non-standard residues; d marks the D form. Tpi = O=C(O)[C@@H]1Cc2c([nH]c3ccccc23)CN1; Oic = O=C(O)[C@@H]1C[C@@H]2CCCC[C@@H]2N1; hArg = N=C(N)NCCCC[C@H](N)C(=O)O; Cit = NC(=O)NCCC[C@H](N)C(=O)O; Aib = CC(C)(N)C(=O)O

What follows are binders tested against T1, CGRP1 receptor (CRLR/RAMP1 complex) of human neuroblastoma SK-N-MC cells (human, UniProt Q16602 23-461; O60894 27-148) (assay: cell-based or functional assay).
T1 sequence (Q16602 23-461, chain 1 of 2): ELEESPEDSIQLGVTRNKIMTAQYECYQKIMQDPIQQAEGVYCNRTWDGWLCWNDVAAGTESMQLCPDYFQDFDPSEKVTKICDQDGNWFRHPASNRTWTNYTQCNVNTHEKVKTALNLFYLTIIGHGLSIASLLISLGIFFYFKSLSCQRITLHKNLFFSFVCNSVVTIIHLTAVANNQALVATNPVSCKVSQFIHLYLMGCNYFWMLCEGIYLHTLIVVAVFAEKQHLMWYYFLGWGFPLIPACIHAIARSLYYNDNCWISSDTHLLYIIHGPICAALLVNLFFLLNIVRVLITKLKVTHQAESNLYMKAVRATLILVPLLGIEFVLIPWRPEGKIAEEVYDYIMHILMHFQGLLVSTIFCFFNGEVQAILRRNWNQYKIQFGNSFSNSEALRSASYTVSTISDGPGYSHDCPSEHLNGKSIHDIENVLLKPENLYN
T1 sequence (O60894 27-148, chain 2 of 2): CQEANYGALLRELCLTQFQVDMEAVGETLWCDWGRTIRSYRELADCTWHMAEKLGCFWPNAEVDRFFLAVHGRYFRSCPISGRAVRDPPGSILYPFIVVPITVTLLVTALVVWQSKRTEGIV

IC50 | Binder
0.44 nM | WVTHXLAGLLSRSGGVVRKNFVPTDVGPFAF (Ac-WVTH(hR)LAGLLSRSGGVVRKNFVPTDVGPFAF-NH2) [SEQ ID NO 21]
0.33 nM | WVTHRLAGLLSXSGGVVRKNFVPTDVGPFAF (Ac-WVTHRLAGLLS(hR)SGGVVRKNFVPTDVGPFAF-NH2; 20 k Da PEG, Amine linkage) [SEQ ID NO 24]
0.36 nM | WVTHXLAGLLSRSGGVVRKNFVPTDVGPFAF (Ac-WVTH(hR)LAGLLSRSGGVVRKNFVPTDVGPFAF-NH2; 20 k Da PEG, Amine linkage) [SEQ ID NO 22]
0.57 nM | WVTHRLAGLLSXSGGVVRKNFVPTDVGPFAF (Ac-WVTHRLAGLLS(hR)SGGVVRKNFVPTDVGPFAF-NH2) [SEQ ID NO 23]

Biological target: T1, CGRP1 receptor (CRLR/RAMP1 complex) of …
Experiment: cell-based or functional assay
Remark: another data set of the same source

IC50 | Binder
10.8 nM | WVTHXLAGLLSXSGGVVXKNFVPTDVGXXAF (Ac-WVTH[Cit]LAGLLS[Cit]SGGVV[hArg]KNFVPTDVG[Pip][1-Nal]AF-NH2) [SEQ ID NO 675]
2.57 nM | WVTHXLAGLLSXSGGVVXKNFVXTDVGXFAX (Ac-WVTH[Cit]LAGLLS[Cit]SGGVV[hArg]KNFV[Oic]TDVG[Oic]FA[2-Nal]-NH2) [SEQ ID NO 132]
2.34 nM | WVTHXLAGLLSXSGGVVXKNXVXTDVGPXAF (Ac-WVTH[Cit]LAGLLS[Cit]SGGVV[hArg]KN[pI-Phe]V[Oic]TDVGP[pI-Phe]AF-NH2) [SEQ ID NO 136]
3.85 nM | WVTHXLAGLLSXSGGVVXKNFVXTDVGPXAF (Ac-WVTH[Cit]LAGLLS[Cit]SGGVV[hArg]KNFV[Oic]TDVGP[Bip]AF-NH2) [SEQ ID NO 134]
2.73 nM | WVTHXLAGLLSXSGGVVXKNFVXTDVGPXAX (Ac-WVTH[Cit]LAGLLS[Cit]SGGVV[hArg]KNFV[Oic]TDVGP[1-Nal]A[2-Nal]-NH2) [SEQ ID NO 133]
16.5 nM | Ac-LAGLLS[Cit]SGGVV[hArg]KNFVPTDVG[Oic]FAF-NH2 (SMILES CC(=O)N[C@@H](CC(C)C)C(=O)N[C@@H](C)C(=O)NCC(=O)N[C@@H](CC(C)C)C(=O)N[C@@H](CC(C)C)C(=O)N[C@@H](CO)C(=O)N[C@@H](CCCNC(N)=O)C(=O)N[C@@H](CO)C(=O)NCC(=O)NCC(=O)N[C@H](C(=O)N[C@H](C(=O)N[C@@H](CCCCNC(=N)N)C(=O)N[C@@H](CCCCN)C(=O)N[C@@H](CC(N)=O)C(=O)N[C@@H](Cc1ccccc1)C(=O)N[C@H](C(=O)N1CCC[C@H]1C(=O)N[C@H](C(=O)N[C@@H](CC(=O)O)C(=O)N[C@H](C(=O)NCC(=O)N1[C@H](C(=O)N[C@@H](Cc2ccccc2)C(=O)N[C@@H](C)C(=O)N[C@@H](Cc2ccccc2)C(N)=O)C[C@@H]2CCCC[C@@H]21)C(C)C)[C@@H](C)O)C(C)C)C(C)C)C(C)C) [SEQ ID NO 662]
13 nM | Ac-[Cit]LAGLLS[Cit]SGGVV[hArg]KNFVPTDVGPFAF-NH2 (SMILES CC(=O)N[C@@H](CCCNC(N)=O)C(=O)N[C@@H](CC(C)C)C(=O)N[C@@H](C)C(=O)NCC(=O)N[C@@H](CC(C)C)C(=O)N[C@@H](CC(C)C)C(=O)N[C@@H](CO)C(=O)N[C@@H](CCCNC(N)=O)C(=O)N[C@@H](CO)C(=O)NCC(=O)NCC(=O)N[C@H](C(=O)N[C@H](C(=O)N[C@@H](CCCCNC(=N)N)C(=O)N[C@@H](CCCCN)C(=O)N[C@@H](CC(N)=O)C(=O)N[C@@H](Cc1ccccc1)C(=O)N[C@H](C(=O)N1CCC[C@H]1C(=O)N[C@H](C(=O)N[C@@H](CC(=O)O)C(=O)N[C@H](C(=O)NCC(=O)N1CCC[C@H]1C(=O)N[C@@H](Cc1ccccc1)C(=O)N[C@@H](C)C(=O)N[C@@H](Cc1ccccc1)C(N)=O)C(C)C)[C@@H](C)O)C(C)C)C(C)C)C(C)C) [SEQ ID NO 657]
3 nM | Ac-VTH[Cit]LAGLLS[Cit]SGGVV[hArg]KNFVPTDVG[Oic]FAF-NH2 (SMILES CC(=O)N[C@H](C(=O)N[C@H](C(=O)N[C@@H](Cc1c[nH]cn1)C(=O)N[C@@H](CCCNC(N)=O)C(=O)N[C@@H](CC(C)C)C(=O)N[C@@H](C)C(=O)NCC(=O)N[C@@H](CC(C)C)C(=O)N[C@@H](CC(C)C)C(=O)N[C@@H](CO)C(=O)N[C@@H](CCCNC(N)=O)C(=O)N[C@@H](CO)C(=O)NCC(=O)NCC(=O)N[C@H](C(=O)N[C@H](C(=O)N[C@@H](CCCCNC(=N)N)C(=O)N[C@@H](CCCCN)C(=O)N[C@@H](CC(N)=O)C(=O)N[C@@H](Cc1ccccc1)C(=O)N[C@H](C(=O)N1CCC[C@H]1C(=O)N[C@H](C(=O)N[C@@H](CC(=O)O)C(=O)N[C@H](C(=O)NCC(=O)N1[C@H](C(=O)N[C@@H](Cc2ccccc2)C(=O)N[C@@H](C)C(=O)N[C@@H](Cc2ccccc2)C(N)=O)C[C@@H]2CCCC[C@@H]21)C(C)C)[C@@H](C)O)C(C)C)C(C)C)C(C)C)[C@@H](C)O)C(C)C) [SEQ ID NO 660]
4.37 nM | Ac-WVTH[Cit]LAGLLS[Cit]SGGVV[hArg]KNFVPTDVG[Aib]FAF-NH2 [SEQ ID NO 670]
28.9 nM | Ac-WVTH[Cit]LAGLLS[Cit]SGGVV[hArg]KNFVPTDVG[Tpi]FAF-NH2 (SMILES CC(=O)N[C@@H](Cc1c[nH]c2ccccc12)C(=O)N[C@H](C(=O)N[C@H](C(=O)N[C@@H](Cc1c[nH]cn1)C(=O)N[C@@H](CCCNC(N)=O)C(=O)N[C@@H](CC(C)C)C(=O)N[C@@H](C)C(=O)NCC(=O)N[C@@H](CC(C)C)C(=O)N[C@@H](CC(C)C)C(=O)N[C@@H](CO)C(=O)N[C@@H](CCCNC(N)=O)C(=O)N[C@@H](CO)C(=O)NCC(=O)NCC(=O)N[C@H](C(=O)N[C@H](C(=O)N[C@@H](CCCCNC(=N)N)C(=O)N[C@@H](CCCCN)C(=O)N[C@@H](CC(N)=O)C(=O)N[C@@H](Cc1ccccc1)C(=O)N[C@H](C(=O)N1CCC[C@H]1C(=O)N[C@H](C(=O)N[C@@H](CC(=O)O)C(=O)N[C@H](C(=O)NCC(=O)N1Cc2[nH]c3ccccc3c2C[C@H]1C(=O)N[C@@H](Cc1ccccc1)C(=O)N[C@@H](C)C(=O)N[C@@H](Cc1ccccc1)C(N)=O)C(C)C)[C@@H](C)O)C(C)C)C(C)C)C(C)C)[C@@H](C)O)C(C)C) [SEQ ID NO 673]
> 1000 nM | Ac-WVTH[Cit]LAGLLS[Cit]SGGVV[hArg]KNFVPTDVG[Oic]FA-NH2 (SMILES CC(=O)N[C@@H](Cc1c[nH]c2ccccc12)C(=O)N[C@H](C(=O)N[C@H](C(=O)N[C@@H](Cc1c[nH]cn1)C(=O)N[C@@H](CCCNC(N)=O)C(=O)N[C@@H](CC(C)C)C(=O)N[C@@H](C)C(=O)NCC(=O)N[C@@H](CC(C)C)C(=O)N[C@@H](CC(C)C)C(=O)N[C@@H](CO)C(=O)N[C@@H](CCCNC(N)=O)C(=O)N[C@@H](CO)C(=O)NCC(=O)NCC(=O)N[C@H](C(=O)N[C@H](C(=O)N[C@@H](CCCCNC(=N)N)C(=O)N[C@@H](CCCCN)C(=O)N[C@@H](CC(N)=O)C(=O)N[C@@H](Cc1ccccc1)C(=O)N[C@H](C(=O)N1CCC[C@H]1C(=O)N[C@H](C(=O)N[C@@H](CC(=O)O)C(=O)N[C@H](C(=O)NCC(=O)N1[C@H](C(=O)N[C@@H](Cc2ccccc2)C(=O)N[C@@H](C)C(N)=O)C[C@@H]2CCCC[C@@H]21)C(C)C)[C@@H](C)O)C(C)C)C(C)C)C(C)C)[C@@H](C)O)C(C)C) [SEQ ID NO 659]
79.3 nM | Ac-WVTH[Cit]LAGLLS[Cit]SGGVV[hArg]KNFVPTDVGP[Tpi]AF-NH2 (SMILES CC(=O)N[C@@H](Cc1c[nH]c2ccccc12)C(=O)N[C@H](C(=O)N[C@H](C(=O)N[C@@H](Cc1c[nH]cn1)C(=O)N[C@@H](CCCNC(N)=O)C(=O)N[C@@H](CC(C)C)C(=O)N[C@@H](C)C(=O)NCC(=O)N[C@@H](CC(C)C)C(=O)N[C@@H](CC(C)C)C(=O)N[C@@H](CO)C(=O)N[C@@H](CCCNC(N)=O)C(=O)N[C@@H](CO)C(=O)NCC(=O)NCC(=O)N[C@H](C(=O)N[C@H](C(=O)N[C@@H](CCCCNC(=N)N)C(=O)N[C@@H](CCCCN)C(=O)N[C@@H](CC(N)=O)C(=O)N[C@@H](Cc1ccccc1)C(=O)N[C@H](C(=O)N1CCC[C@H]1C(=O)N[C@H](C(=O)N[C@@H](CC(=O)O)C(=O)N[C@H](C(=O)NCC(=O)N1CCC[C@H]1C(=O)N1Cc2[nH]c3ccccc3c2C[C@H]1C(=O)N[C@@H](C)C(=O)N[C@@H](Cc1ccccc1)C(N)=O)C(C)C)[C@@H](C)O)C(C)C)C(C)C)C(C)C)[C@@H](C)O)C(C)C) [SEQ ID NO 676]
8.74 nM | Ac-[Cit]LAGLLS[Cit]SGGVV[hArg]KNFVPTDVG[Oic]FAF-NH2 [SEQ ID NO 661]
89.9 nM | WVTHXLAGLLSXSGGVVXKNFVPTDVGPXAF (Ac-WVTH[Cit]LAGLLS[Cit]SGGVV[hArg]KNFVPTDVGP[Tic]AF-NH2) [SEQ ID NO 131]
6.01 nM | WVTHXLAGLLSXSGGVVXKNFVPTDVGXFAF (AC-WVTH[Cit]LAGLLS[Cit]SGGVV[hArg]KNFVPTDVG[Hyp]FAF-NH2) [SEQ ID NO 668]
6.62 nM | WVTHXLAGLLSXSGGVVXKNFVPTDVGXFAF (Ac-WVTH[Cit]LAGLLS[Cit]SGGVV[hArg]KNFVPTDVG[Hyp]FAF-NH2) [SEQ ID NO 667]
11.2 nM | WVTHXLAGLLSXSGGVVXKNFVPTDVGXFAF (AC-WVTH[Cit]LAGLLS[Cit]SGGVV[hArg]KNFVPTDVG[Pip]FAF-NH2) [SEQ ID NO 666]
3.22 nM | WVTHXLAGLLSXSGGVVXKNFVXTDVGPFAX (Ac-WVTH[Cit]LAGLLS[Cit]SGGVV[hArg]KNFV[Oic]TDVGPFA[2-Nal]-NH2) [SEQ ID NO 135]
3.77 nM | Ac-WVTH[Cit]LAGLLS[Cit]SGGVV[Cit]KNFVPTDVG[Oic]KAF-NH2 (SMILES CC(=O)N[C@@H](Cc1c[nH]c2ccccc12)C(=O)N[C@H](C(=O)N[C@H](C(=O)N[C@@H](Cc1c[nH]cn1)C(=O)N[C@@H](CCCNC(N)=O)C(=O)N[C@@H](CC(C)C)C(=O)N[C@@H](C)C(=O)NCC(=O)N[C@@H](CC(C)C)C(=O)N[C@@H](CC(C)C)C(=O)N[C@@H](CO)C(=O)N[C@@H](CCCNC(N)=O)C(=O)N[C@@H](CO)C(=O)NCC(=O)NCC(=O)N[C@H](C(=O)N[C@H](C(=O)N[C@@H](CCCNC(N)=O)C(=O)N[C@@H](CCCCN)C(=O)N[C@@H](CC(N)=O)C(=O)N[C@@H](Cc1ccccc1)C(=O)N[C@H](C(=O)N1CCC[C@H]1C(=O)N[C@H](C(=O)N[C@@H](CC(=O)O)C(=O)N[C@H](C(=O)NCC(=O)N1[C@H](C(=O)N[C@@H](CCCCN)C(=O)N[C@@H](C)C(=O)N[C@@H](Cc2ccccc2)C(N)=O)C[C@@H]2CCCC[C@@H]21)C(C)C)[C@@H](C)O)C(C)C)C(C)C)C(C)C)[C@@H](C)O)C(C)C) [SEQ ID NO 665]
